Results published in patent US20240343803A1 (SHANDONG SIMCERE BIOPHARMACEUTICAL, published 2024).
Where two headings read alike, the source gives them in different places.

Key:
[1] = biological target: T1, human PVRIG-his (AcroBiosystems, Cat NO. PVG-H52H4) (human, UniProt Q6DKI7 41-171, limits assumed); assay: competition ELISA, PVRIG-His coated, competitor human PVRL2-mFc
T1 construct: also called human PVRIG protein
T1 sequence (looked up): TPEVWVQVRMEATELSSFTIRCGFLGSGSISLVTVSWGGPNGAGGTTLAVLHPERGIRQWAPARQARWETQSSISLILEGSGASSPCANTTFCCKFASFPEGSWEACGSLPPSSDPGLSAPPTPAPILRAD
Description: (§1) The ELISA plate was pre-coated with 100 μL/well of 0.5 μg/mL human PVRIG-his protein (AcroBiosystems, Cat NO. PVG-H52H4). The tested anti-PVRIG antibodies were diluted from the highest concentration of 16 nM (two-fold concentration). The diluted antibodies were mixed with 18 ng/ml human PVRL2-mFc (AcroBiosystems, Cat NO. CD2-H5257) in equal volume, added into the plate (100 μL/well), and incubated with shaking at room temperature for 2.0 hours. […] A HRP substrate, TMB (Thermo, Cat NO. 34029) was added into wells after washing the plate again for color development. After adding a termination solution to terminate the reaction, the absorbance value was read by a microplate reader (MD i3×). An inhibiting curve was drawn with concentration of antibodies as the abscissa and the corresponding OD value as the ordinate. The IC50 value was calculated by using a Four Parameter Logistic Fit (GraphPadPrism9). The smaller the IC50 value, the stronger the ability of the antibodies inhibits the binding between PVRIG and PVRL2. The positive and negative controls are the same as in Example 8.

[2] = biological target: T1, human PVRIG-his (AcroBiosystems, Cat …); assay: ELISA, antigen coated
Description: (§2) The ELISA plate was pre-coated with 100 μL/well of 0.5 μg/mL human PVRIG-his (AcroBiosystems, Cat NO. PVG-H52H4) or cynomolgus monkey PVRIG (Novoprotein, Cat NO. C09B). The tested anti-PVRIG humanized antibodies were serially diluted (initial concentration 3 nM, 3-fold serial dilution), added into the plate (100 μL/well) and incubated with shaking at room temperature for 1.5 hours. […] A HRP substrate, TMB (Thermo, Cat NO. 34029) was added into wells after washing the plate again for color development. After adding a termination solution to terminate the reaction, the absorbance value was read by a microplate reader (MD i3×). An antibody binding curve was drawn with concentration of antibodies as the abscissa and the corresponding OD value as the ordinate. The EC50 value was calculated by using a Four Parameter Logistic Fit (GraphPadPrism9). The smaller the EC50 value, the stronger the ability of the antibodies binds to human or cynomolgus monkey PVRIG. The binding effect of the humanized antibodies was normalized to the corresponding parental antibodies. If the percentage value is higher than 100%, the binding effect of humanized antibodies is better than that of parental antibody.

[3] = biological target: T2, cynomolgus monkey PVRIG (Novoprotein, Cat NO. C09B) (cynomolgus monkey, UniProt A0A2K5WVV8 41-171); assay: ELISA, antigen coated
T2 construct: also called cynomolgus monkey PVRIG protein
T2 sequence: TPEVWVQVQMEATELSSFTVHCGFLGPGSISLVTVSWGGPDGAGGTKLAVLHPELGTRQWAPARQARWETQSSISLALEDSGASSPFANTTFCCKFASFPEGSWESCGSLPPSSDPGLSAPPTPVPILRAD
Description: as §2

[4] = biological target: T1, human PVRIG-his (AcroBiosystems, Cat …); assay: competition ELISA, PVRIG-His coated, competitor human PVRL2-mFc; parameters: AUC: unit not given here
Description: as §1
The methods refer to Example 11. The inhibiting activity of the humanized antibodies was normalized to the corresponding parental antibodies. If the percentage value is higher than 100%, the inhibiting effect of humanized antibodies is better than that of parental antibodies.

[5] = biological target: T3, Fusion protein of extracellular domain of human TIGIT and human IgG1 Fc fragment (human TIGIT ECD-hFc) (human); assay: blocking of TIGIT ECD-hFc binding to CHO-K1 CD155 cells
T3 construct: The entry includes the signal peptide (limits not recoverable) and the human IgG1 Fc
T3 sequence (chain, as listed by the source limits assumed): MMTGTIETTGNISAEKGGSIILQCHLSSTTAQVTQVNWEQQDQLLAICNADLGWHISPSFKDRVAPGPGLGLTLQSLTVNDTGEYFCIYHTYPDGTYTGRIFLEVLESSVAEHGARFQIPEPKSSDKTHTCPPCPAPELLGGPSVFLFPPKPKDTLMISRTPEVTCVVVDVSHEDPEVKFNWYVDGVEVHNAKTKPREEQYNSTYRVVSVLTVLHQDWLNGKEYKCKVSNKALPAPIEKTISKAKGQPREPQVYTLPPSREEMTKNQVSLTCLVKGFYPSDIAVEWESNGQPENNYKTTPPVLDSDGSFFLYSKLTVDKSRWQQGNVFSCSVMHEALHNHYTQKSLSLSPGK
Method in brief: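 IC50 values come from inhibition curves in a cell-based ELISA using CHO-K1 CD155 cells. Antibodies premixed for 0.5 h with human TIGIT ECD-hFc (working concentration 30 ng/mL) were added to the fixed, blocked cells for 1.5-2 h at 37° C. Bound TIGIT was then detected with HRP secondary antibody and TMB at OD450 nm.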

[6] = biological target: T4, Full-length human TIGIT on CHO-K1 cells (CHO-K1 human TIGIT) (human, UniProt Q495A1 22-244); assay: FACS; blocking of Bio-CD155-His binding to CHO-K1 human TIGIT cells
T4 construct: NCBI XP_024309156.1; the entry includes the signal peptide (limits not recoverable); The strain (high, medium, low) is named under assay; also called high expression strain 1D2; medium expression strain 2D10
T4 sequence: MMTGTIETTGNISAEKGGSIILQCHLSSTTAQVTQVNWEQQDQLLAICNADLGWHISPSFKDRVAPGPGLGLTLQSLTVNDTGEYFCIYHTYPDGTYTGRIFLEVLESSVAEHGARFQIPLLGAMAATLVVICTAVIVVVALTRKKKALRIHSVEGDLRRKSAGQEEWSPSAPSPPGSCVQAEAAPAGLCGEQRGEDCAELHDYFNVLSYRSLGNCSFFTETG
Method in brief: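 Flow cytometry blocking assay in CHO-K1 human TIGIT cells (2×10⁵/40 μL in 1% BSA-PBS). Cells were mixed with equal volumes of antibody (12-point 3-fold dilution from 210 nM) and biotinylated CD155-His (diluted to 3 μg/mL), then held at 4° C for 60 min. Bound ligand was detected with APC-streptavidin (1:1700, 4° C, 40 min) on a BD Canto II. IC50 came from the inhibition curves.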

| Binder | IC50 [1] [nM] | % relative activity parental antibody/tested antibody [2] [%] | EC50 [2] [nM] | % relative activity parental antibody/tested antibody [3] [%] | EC50 [3] [nM] | % relative activity (AUC) parental antibody/test antibody [4] [%] | % relative activity (IC50) parental antibody/test antibody [4] [%] | AUC [4] | IC50 [4] [nM] | IC50 [5] [nM] | IC50 [6] [nM] |
| --- | --- | --- | --- | --- | --- | --- | --- | --- | --- | --- | --- |
| PVRIG-A105 (Fc fusion, heavy chain antibody VHH-hinge-CH2-CH3, human IgG1 constant part; not shown: human IgG1 hinge-CH2-CH3) EVQLVESGGGLVQAGGSLRLSCAASGRTFDRHTMTWFRQAPGKEREFVATASRIPGDTYYSHSVKGRFTISRDNAKNTVYLQLNNLKPEDTAVYYCAATSAYCSEVDCYEKGSWYDNWGQGIQVTVSS | 0.0571 |  |  |  |  |  |  |  |  |  |  |
| PVRIG-A50 (Fc fusion, heavy chain antibody VHH-hinge-CH2-CH3, human IgG1 constant part; also called PVRIG-50; not shown: human IgG1 hinge-CH2-CH3) EVQLVESGGGLVQPGGSLRLSCAASGFTFSYYDMSWVRQAPGKGLEWVSTINSNGGRTSYVDSVKGRFTISRDNTKNTLYLQMNSLKPEDTAVYYCVEGDPHNFGLENLSLRDFGSWGQGTQVTVSS | 0.196 |  |  |  |  |  |  |  |  |  |  |
| PVRIG-A50-H1 (Fc fusion, humanized variant of PVRIG-A50; also called A50.VH1; not shown: constant part not restated for the humanized forms; parents are VHH-hinge-CH2-CH3 of human IgG1; detected by anti-human) EVQLVESGGGLVQPGGSLRLSCAASGFTFSYYDMSWVRQAPGKGLEWVSTINSNGGRTSYVDSVKGRFTISRDNSKNTLYLQMNSLRAEDTAVYYCVEGDPHNFGLENLSLRDFGSWGQGTMVTVSS |  | 105 | 0.0871 | 95.1 | 0.13 | 82.6 | 77.5 | 2.42 | 1 |  |  |
| PVRIG-A50-H1d (Fc fusion, humanized variant of PVRIG-A50; also called A50.VH1d; not shown: constant part not restated for the humanized forms; parents are VHH-hinge-CH2-CH3 of human IgG1; detected by anti-human) EVQLVESGGGLVQPGGSLRLSCAASGFTFSYYDMSWVRQAPGKGLEWVSTINSNGGRTSYVDSVKGRFTISRDNSKNTLYLQMNSLRAEDTAVYYCVEGDPHNFGLESLSLRDFGSWGQGTMVTVSS |  | 118 | 0.0774 | 111 | 0.111 | 83.2 | 75 | 2.4 | 1.03 |  |  |
| TIGIT-002-H4L3 (antibody, V domains shown, Humanized anti-TIGIT antibody) VH: EVQLQESGPGLVKPSETLSLTCAVSGYSITSDSWNWIRQPPGKKLEYIGYISYSGNTYYNPSLKSRVTISRDTSKNQFSLKLSSVTAADTAVYYCARLDFSNYGGAVDYWGQGTTVTVSS VL: DIVMTQSPDSLAVSLGERATINCKASQNVRTAVAWYQQKPGQSPKLMIYSASYRYTGVPDRFSGSGSGTDFTLTISSLQAEDVAVYYCQQYYTTPWTFGGGTKVEIK |  |  |  |  |  |  |  |  |  | 0.354 | 0.137 |
| TIGIT-005-H2L1d (antibody, V domains shown, Humanized anti-TIGIT antibody with NG-site mutation in VL) VH: EVQLVQSGAEVKKPGASVKVSCKASGYAFTNYLIEWVRQAPGQRLEWMGVINPGSGGTNYKEKFKGRVTITADKSSSTAYMELSSLRSEDTAVYYCARGEYFFFDYWGQGTTVTVSS VL: DIVMTQSPDSLAVSLGERATINCKASQHVSNAVAWYQHKPGQSPKLLIYSASYRYTGVPDRFSGSGSGTDFTLTISSLQAEDVAVYYCQQHYNTPHTFGGGTKVEIK |  |  |  |  |  |  |  |  |  | 0.376 | 0.15 |
| PVRIG-A118 (Fc fusion, heavy chain antibody VHH-hinge-CH2-CH3, human IgG1 constant part; not shown: human IgG1 hinge-CH2-CH3) QVQLVESGGGLVQAGGSLRLSCAASETYFDLYVMGWYRQAPGKDRELVATITYTGSIKIVDSVKDRFTISRGDAKNTVSLQMSSLKPEDTAVYFCNADPSGLGRKVYWGQGTQVTVSS | 0.0513 |  |  |  |  |  |  |  |  |  |  |
| PVRIG-A118-H7 (Fc fusion, humanized variant of PVRIG-A118; also called A118.VH7; not shown: constant part not restated for the humanized forms; parents are VHH-hinge-CH2-CH3 of human IgG1; detected by anti-human) EVQLVESGGGLVQPGGSLRLSCAASETYFDLYVMGWYRQAPGKDRELVATITYTGSIKYVDSVKGRFTISRGDAKNSLYLQMNSLRAEDTAVYFCNADPSGLGRKVYWGQGTMVTVSS |  | 99.9 | 0.0501 | 33.1 | 0.0817 | 114 | 129 | 1.38 | 0.43 |  |  |
| PVRIG-A118-H3 (Fc fusion, humanized variant of PVRIG-A118; also called A118.VH3; not shown: constant part not restated for the humanized forms; parents are VHH-hinge-CH2-CH3 of human IgG1; detected by anti-human) EVQLVESGGGLVQPGGSLRLSCAASETYFDLYVMGWYRQAPGKDRELVATITYTGSIKYVDSVKGRFTISRGDAKNSLYLQMNSLRAEDTAVYYCNADPSGLGRKVYWGQGTMVTVSS |  | 100 | 0.05 | 34 | 0.0794 | 106 | 144 | 1.49 | 0.386 |  |  |
| PVRIG-A118-H1 (Fc fusion, humanized variant of PVRIG-A118; also called A118.VH1; not shown: constant part not restated for the humanized forms; parents are VHH-hinge-CH2-CH3 of human IgG1; detected by anti-human) EVQLVESGGGLVQPGGSLRLSCAASETYFDLYVMGWYRQAPGKDRELVATITYTGSIYYVDSVKGRFTISRDNAKNSLYLQMNSLRAEDTAVYYCNADPSGLGRKVYWGQGTMVTVSS |  | 110 | 0.0456 | 4.62 | 0.585 | 121 | 157 | 1.31 | 0.355 |  |  |
| PVRIG-A118-H2 (Fc fusion, humanized variant of PVRIG-A118; also called A118.VH2; not shown: constant part not restated for the humanized forms; parents are VHH-hinge-CH2-CH3 of human IgG1; detected by anti-human) EVQLVESGGGLVQPGGSLRLSCAASETYFDLYVMGWYRQAPGKDRELVATITYTGSIKYVDSVKGRFTISRDNAKNSLYLQMNSLRAEDTAVYYCNADPSGLGRKVYWGQGTMVTVSS |  | 102 | 0.0491 | 4.55 | 0.594 | 117 | 156 | 1.35 | 0.357 |  |  |
